Test results published in publication PMC4875590, “LATE ELONGATED HYPOCOTYL regulates photoperiodic flowering via the circadian clock in Arabidopsis”.

Target: MBP-CCA1 (Arabidopsis thaliana, UniProt P92973 1-608)
Experiment: EMSA; 100 ng protein; 100 ng poly(dI-dC); EMSA: 10 mM Tris-HCl pH 7.6, 50 mM NaCl, 1 mM EDTA, 5 mM DTT, 5% glycerol, 100 ng poly(dI-dC), 30 min, room temperature; 6% native PAGE
Details: protein: recombinant; tags: MBP (N-terminal, pMAL-c2X); label: 32P end label

Chain of MBP-CCA1 (P92973 whole entry): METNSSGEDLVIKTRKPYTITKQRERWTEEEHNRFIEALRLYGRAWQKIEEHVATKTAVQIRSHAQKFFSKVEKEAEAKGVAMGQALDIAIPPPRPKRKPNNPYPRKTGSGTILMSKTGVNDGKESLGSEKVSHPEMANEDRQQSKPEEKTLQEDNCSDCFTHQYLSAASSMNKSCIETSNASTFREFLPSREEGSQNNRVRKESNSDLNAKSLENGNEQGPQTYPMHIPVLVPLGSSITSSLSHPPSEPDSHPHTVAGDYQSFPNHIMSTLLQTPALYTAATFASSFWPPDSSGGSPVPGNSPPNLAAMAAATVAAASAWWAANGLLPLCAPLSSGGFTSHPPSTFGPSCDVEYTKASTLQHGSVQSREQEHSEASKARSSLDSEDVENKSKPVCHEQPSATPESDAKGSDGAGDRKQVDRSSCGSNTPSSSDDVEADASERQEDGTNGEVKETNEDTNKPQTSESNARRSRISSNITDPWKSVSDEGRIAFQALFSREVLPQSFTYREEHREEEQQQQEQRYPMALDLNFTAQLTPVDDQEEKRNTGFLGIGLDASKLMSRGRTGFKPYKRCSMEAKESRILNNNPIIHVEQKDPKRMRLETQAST

| Binder | binding result |
| --- | --- |
| FT CBS (dsDNA) DNA 1: GCTTTAGATTTTTAATAG DNA 2: CTATTAAAAATCTAAAGC | binds |
| FT EE (dsDNA) DNA 1: TAATTAAAATATCTGCAAA DNA 2: TTTGCAGATATTTTAATTA | binds |
